Source: article PMC7374565 (Nature Communications, 2020)

Columns and labels:
[1] = biological target: intrinsically disordered domain of avian ANP32A (amino acids 149-281) (Gallus gallus); assay: NMR titration; conditions: both partners purified
[2] = biological target: intrinsically disordered domain of human ANP32A (amino acids 144-249) (human, UniProt P39687 144-249); assay: NMR titration; conditions: both partners purified
intrinsically disordered domain of human ANP32A (amino acids 144-249), sequence (P39687 144-249): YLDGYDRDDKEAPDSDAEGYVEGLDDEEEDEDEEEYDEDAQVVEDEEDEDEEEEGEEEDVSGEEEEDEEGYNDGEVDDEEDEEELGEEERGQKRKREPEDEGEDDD

B1: 627 domain of PB2 (E627), amino acids 538-693 (domain or fragment)
chain: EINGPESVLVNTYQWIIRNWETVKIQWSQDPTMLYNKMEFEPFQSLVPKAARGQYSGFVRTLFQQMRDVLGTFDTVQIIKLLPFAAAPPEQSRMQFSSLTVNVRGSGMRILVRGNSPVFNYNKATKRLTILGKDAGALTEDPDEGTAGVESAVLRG
In the case of B1, the “KD of the individual sites (tightest)” value [1] is reported as no less than 1700 µM, the Kd [1] is reported as greater than 600 µM and the “KD of the individual sites” value [2] is reported as greater than 1400 µM.
